Kd data for one molecule are collected here from patent publication US20190112362A1 (published 2019).

The target in this experiment is Human Tau monomer (recombinant 2N4R isoform, amino acids 2-441) (human, UniProt P10636 2-441). Nature of the experiment: SPR. (In general: SPR reads the build-up and loss of mass on a sensor chip optically.)
Chain of Human Tau monomer (recombinant 2N4R isoform, amino acids 2-441) (P10636 other isoform, or with tags, fused parts or gaps): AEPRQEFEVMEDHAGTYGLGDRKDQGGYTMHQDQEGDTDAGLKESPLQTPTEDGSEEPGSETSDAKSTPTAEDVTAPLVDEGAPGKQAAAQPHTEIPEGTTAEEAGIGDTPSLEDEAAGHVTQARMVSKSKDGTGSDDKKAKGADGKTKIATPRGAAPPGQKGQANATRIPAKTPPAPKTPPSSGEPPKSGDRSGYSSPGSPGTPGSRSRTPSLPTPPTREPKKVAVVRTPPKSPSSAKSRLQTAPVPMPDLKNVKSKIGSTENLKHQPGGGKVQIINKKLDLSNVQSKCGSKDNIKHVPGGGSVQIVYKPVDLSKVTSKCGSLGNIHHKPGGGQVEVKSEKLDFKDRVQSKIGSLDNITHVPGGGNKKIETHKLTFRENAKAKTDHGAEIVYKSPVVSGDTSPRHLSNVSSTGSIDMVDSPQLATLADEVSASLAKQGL

For the molecule EDLHSNADTYFL [hu37D3.v29.8], the Kd (as a rule, the equilibrium constant for the complex coming apart) came out at 40.9 nM.
